Here are results for 19 variants from the supplement of paper PMC7125110.

One may read the kcat as the number of substrate molecules converted per active site and unit of time at saturation. The KM is the concentration of substrate that gives half-maximal velocity.

B1: glmS ribozyme (parent)
chain: AUAAAAGCGCCAGAACUACAGAAAUGUAGUUGACGAGGAGGAGGUUUAUCGAAUUUUCGGCGGAUGCCUCCAAA

± gives the standard error. For some of these results: Variants at the floor of the assay were thinned out.

What all share (details): with glucosamine-6-phosphate
In data set [1] the parent is B1. Briefly: kcat; higher = faster cleavage; RNA array. In a few lines:
(§1)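 Sequenced MiSeq chips were the platform: E. coli RNA polymerase transcribed barcoded ribozyme variants on them in situ, and a hybridised Cy3 probe tracked these at 37 °C. After glucosamine-6-phosphate (40 μM to 10 mM) in HEPES/KCl/Mg(OAc)2 buffer was flowed in, tiles were imaged over ~14 h. Signals normalised to baseline and to non-cleaving reference variants were reduced to per-tile medians and fit to one- or two-exponential decays to obtain kobs. kcat and KM were derived through weighted Michaelis–Menten fits across concentrations.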

Variants of B1 are the subject of data set [2]. The experiment in a line: KM; higher = weaker cofactor use; RNA array. Put shortly: as §1
Data set [3] covers variants of B1. The experiment in a line: self-cleavage kobs at 640 uM GlcN6P; higher = faster cleavage; RNA array. Put shortly:
as §1

Data set [4] covers variants of B1. Briefly: self-cleavage kobs at 2500 uM GlcN6P; higher = faster cleavage; RNA array. Put shortly: as §1
Data set [5] covers variants of B1. Briefly: self-cleavage kobs at 10000 uM GlcN6P; higher = faster cleavage; RNA array. Put shortly: as §1
The variants in data set [6] derive from B1. The experiment in a line: self-cleavage kobs at 40 uM GlcN6P; higher = faster cleavage; RNA array. Put shortly:
as §1

Data set [7] covers variants of B1. The experiment in a line: self-cleavage kobs at 160 uM GlcN6P; higher = faster cleavage; RNA array. Put shortly:
as §1

On to A53C C68U, for which the kcat in the data set with glucosamine-6-phosphate [1] worked out at 9.65e-05 ± 7.1e-06 s⁻¹. In addition, the Michaelis-Menten constant (KM) with glucosamine-6-phosphate [2] was determined as 858 ± 310 µM. The “self-cleavage kobs at 640 uM GlcN6P” value in the data set with glucosamine-6-phosphate [3] amounted to 3.67e-05 ± 7.7e-06 s⁻¹. For the same variant, the “self-cleavage kobs at 2500 uM GlcN6P” value with glucosamine-6-phosphate [4] worked out at 8.77e-05 ± 1e-05 s⁻¹. For the same variant, in the data set with glucosamine-6-phosphate [5], the “self-cleavage kobs at 10000 uM GlcN6P” value was 8.67e-05 ± 5.3e-06 s⁻¹.
On to C34G G63U C68G, for which the kcat in the data set with glucosamine-6-phosphate [1] was determined as 2.21e-05 ± 7.4e-06 s⁻¹.
Regarding C50A A53C U57G C58G, the catalytic constant (kcat) with glucosamine-6-phosphate [1] is 6.76e-05 ± 2.5e-05 s⁻¹. The “self-cleavage kobs at 640 uM GlcN6P” value with glucosamine-6-phosphate [3] was found to be 0.000112 ± 2.3e-05 s⁻¹. For the same variant, in the data set with glucosamine-6-phosphate [4], the “self-cleavage kobs at 2500 uM GlcN6P” value is 8.01e-05 ± 1.9e-05 s⁻¹.
Take G7A A14C: the catalytic constant (kcat) in the data set with glucosamine-6-phosphate [1] was found to be 1.34e-05 ± 5.9e-06 s⁻¹. Besides, in the data set with glucosamine-6-phosphate [6], the “self-cleavage kobs at 40 uM GlcN6P” value is less than 1e-05 s⁻¹.
Turning to A64G U65G G66U C70G, the kcat in the data set with glucosamine-6-phosphate [1] worked out at 2.23e-05 ± 6.3e-06 s⁻¹.
In the case of U56G U69A, in the data set with glucosamine-6-phosphate [1], the turnover number (kcat) is 0.00018 ± 3.2e-05 s⁻¹. In addition, the “self-cleavage kobs at 40 uM GlcN6P” value in the data set with glucosamine-6-phosphate [6] came to 4.08e-05 ± 1.8e-05 s⁻¹. Further, the “self-cleavage kobs at 640 uM GlcN6P” value with glucosamine-6-phosphate [3] was 0.000102 ± 2.7e-05 s⁻¹. Besides, in the data set with glucosamine-6-phosphate [4], the “self-cleavage kobs at 2500 uM GlcN6P” value was determined as 0.000186 ± 3.1e-05 s⁻¹. In addition, the “self-cleavage kobs at 10000 uM GlcN6P” value with glucosamine-6-phosphate [5] was 0.000176 ± 3.7e-05 s⁻¹.
With A48C U54C, the catalytic constant (kcat) with glucosamine-6-phosphate [1] worked out at 0.00042 ± 0.00013 s⁻¹. Further, the “self-cleavage kobs at 640 uM GlcN6P” value with glucosamine-6-phosphate [3] came to 9.71e-05 ± 2.4e-05 s⁻¹. In addition, the “self-cleavage kobs at 2500 uM GlcN6P” value with glucosamine-6-phosphate [4] amounted to 0.000224 ± 6e-05 s⁻¹. For the same variant, in the data set with glucosamine-6-phosphate [5], the “self-cleavage kobs at 10000 uM GlcN6P” value stood at 0.000316 ± 9.5e-05 s⁻¹.
The corresponding values for A6U C71G are 3.27e-05 ± 8.4e-06 s⁻¹, 5.72e-05 ± 1.3e-05 s⁻¹, 2.85e-05 ± 1e-05 s⁻¹ and 2.69e-05 ± 8e-06 s⁻¹.
As to G41U U69C, in the data set with glucosamine-6-phosphate [1], the kcat was 4.52e-05 ± 7.4e-06 s⁻¹. In addition, the “self-cleavage kobs at 2500 uM GlcN6P” value with glucosamine-6-phosphate [4] is 3.82e-05 ± 1.3e-05 s⁻¹.
As for A14C A15G G40U, the kcat in the data set with glucosamine-6-phosphate [1] stood at 0.000605 ± 0.0002 s⁻¹. In addition, the Michaelis constant (KM) with glucosamine-6-phosphate [2] was found to be 5380 ± 2700 µM. In addition, the “self-cleavage kobs at 640 uM GlcN6P” value with glucosamine-6-phosphate [3] was 8.18e-05 ± 1.4e-05 s⁻¹. In addition, the “self-cleavage kobs at 2500 uM GlcN6P” value in the data set with glucosamine-6-phosphate [4] was determined as 0.000171 ± 2.4e-05 s⁻¹. Also, in the data set with glucosamine-6-phosphate [5], the “self-cleavage kobs at 10000 uM GlcN6P” value is 0.000428 ± 7.3e-05 s⁻¹.
In the case of A15C U54C, the turnover number (kcat) with glucosamine-6-phosphate [1] worked out at 0.00621 ± 0.0013 s⁻¹. In the data set with glucosamine-6-phosphate [2], the KM amounted to 1740 ± 510 µM. Moreover, in the data set with glucosamine-6-phosphate [6], the “self-cleavage kobs at 40 uM GlcN6P” value was determined as 0.000176 ± 2.3e-05 s⁻¹. Moreover, the “self-cleavage kobs at 160 uM GlcN6P” value with glucosamine-6-phosphate [7] amounted to 0.000481 ± 8.7e-05 s⁻¹. The “self-cleavage kobs at 640 uM GlcN6P” value with glucosamine-6-phosphate [3] worked out at 0.00131 ± 0.00024 s⁻¹. In addition, in the data set with glucosamine-6-phosphate [4], the “self-cleavage kobs at 2500 uM GlcN6P” value stood at 0.00384 ± 0.00078 s⁻¹. Further, the “self-cleavage kobs at 10000 uM GlcN6P” value with glucosamine-6-phosphate [5] amounted to 0.00556 ± 0.00077 s⁻¹.
For U57G, the catalytic constant (kcat) with glucosamine-6-phosphate [1] was 0.000109 ± 3.4e-06 s⁻¹. In addition, in the data set with glucosamine-6-phosphate [2], the KM was determined as 2910 ± 250 µM. Besides, the “self-cleavage kobs at 640 uM GlcN6P” value in the data set with glucosamine-6-phosphate [3] amounted to 2.22e-05 ± 1.9e-06 s⁻¹. The “self-cleavage kobs at 2500 uM GlcN6P” value with glucosamine-6-phosphate [4] turned out to be 4.95e-05 ± 1.4e-06 s⁻¹. The “self-cleavage kobs at 10000 uM GlcN6P” value in the data set with glucosamine-6-phosphate [5] was determined as 8.52e-05 ± 1.5e-06 s⁻¹.
The corresponding values for A42U C68U are 0.000347 ± 1.8e-05 s⁻¹, 1360 ± 230 µM, 0.000108 ± 2.4e-05 s⁻¹, 0.000254 ± 5.6e-05 s⁻¹ and 0.000302 ± 3e-05 s⁻¹.
For G13C C70A, the kcat with glucosamine-6-phosphate [1] is 1.11e-05 ± 3.3e-06 s⁻¹.
With G29C U47A, in the data set with glucosamine-6-phosphate [1], the kcat stood at 0.00173 ± 0.00071 s⁻¹. In addition, the “self-cleavage kobs at 40 uM GlcN6P” value in the data set with glucosamine-6-phosphate [6] is 4.95e-05 ± 1.1e-05 s⁻¹. Also, in the data set with glucosamine-6-phosphate [7], the “self-cleavage kobs at 160 uM GlcN6P” value came out at 7.89e-05 ± 1.6e-05 s⁻¹. For the same variant, in the data set with glucosamine-6-phosphate [3], the “self-cleavage kobs at 640 uM GlcN6P” value turned out to be 0.000293 ± 3.8e-05 s⁻¹. For the same variant, the “self-cleavage kobs at 2500 uM GlcN6P” value with glucosamine-6-phosphate [4] stood at 0.000579 ± 8.4e-05 s⁻¹. Besides, in the data set with glucosamine-6-phosphate [5], the “self-cleavage kobs at 10000 uM GlcN6P” value turned out to be 0.00158 ± 0.0002 s⁻¹.
With G7C C10G C67G, the kcat with glucosamine-6-phosphate [1] is 1.87e-05 ± 2.3e-06 s⁻¹.
Take A52G G66U: the turnover number (kcat) in the data set with glucosamine-6-phosphate [1] worked out at 0.00018 ± 2.4e-05 s⁻¹. Moreover, the Michaelis constant (KM) with glucosamine-6-phosphate [2] came to 4030 ± 1300 µM. Moreover, in the data set with glucosamine-6-phosphate [3], the “self-cleavage kobs at 640 uM GlcN6P” value was 2.89e-05 ± 1.1e-05 s⁻¹. For the same variant, the “self-cleavage kobs at 2500 uM GlcN6P” value with glucosamine-6-phosphate [4] was found to be 6.2e-05 ± 1.6e-05 s⁻¹. Moreover, the “self-cleavage kobs at 10000 uM GlcN6P” value with glucosamine-6-phosphate [5] was found to be 0.00013 ± 1.5e-05 s⁻¹.
Turning to A53C U55G, the kcat in the data set with glucosamine-6-phosphate [1] worked out at 0.00572 ± 0.0016 s⁻¹. Moreover, in the data set with glucosamine-6-phosphate [2], the Michaelis constant (KM) was 1640 ± 730 µM. In the data set with glucosamine-6-phosphate [6], the “self-cleavage kobs at 40 uM GlcN6P” value came to 0.000162 ± 2.2e-05 s⁻¹. The “self-cleavage kobs at 160 uM GlcN6P” value with glucosamine-6-phosphate [7] is 0.000551 ± 9.1e-05 s⁻¹. Further, the “self-cleavage kobs at 640 uM GlcN6P” value in the data set with glucosamine-6-phosphate [3] worked out at 0.00138 ± 0.00025 s⁻¹. For the same variant, the “self-cleavage kobs at 2500 uM GlcN6P” value in the data set with glucosamine-6-phosphate [4] came out at 0.00261 ± 0.00039 s⁻¹. In addition, the “self-cleavage kobs at 10000 uM GlcN6P” value with glucosamine-6-phosphate [5] was determined as 0.00667 ± 0.00076 s⁻¹.
In the case of U31C A39U, the kcat with glucosamine-6-phosphate [1] came out at 0.00686 ± 0.0022 s⁻¹. Also, the KM with glucosamine-6-phosphate [2] was 6250 ± 2600 µM. In the data set with glucosamine-6-phosphate [6], the “self-cleavage kobs at 40 uM GlcN6P” value was found to be 7.06e-05 ± 8.4e-06 s⁻¹. For the same variant, the “self-cleavage kobs at 160 uM GlcN6P” value in the data set with glucosamine-6-phosphate [7] amounted to 0.000146 ± 1.5e-05 s⁻¹. For the same variant, the “self-cleavage kobs at 640 uM GlcN6P” value with glucosamine-6-phosphate [3] came out at 0.000692 ± 6.8e-05 s⁻¹. The “self-cleavage kobs at 2500 uM GlcN6P” value with glucosamine-6-phosphate [4] is 0.00175 ± 0.00023 s⁻¹. Moreover, the “self-cleavage kobs at 10000 uM GlcN6P” value with glucosamine-6-phosphate [5] stood at 0.00432 ± 0.00036 s⁻¹.
